# Reference: US20200024330A1
# Experiments:
# Assay in all cases: cell-based or functional assay
# [1] = molecular target: HIV-1 93UG077 Env (on pseudovirus) (HIV-1)
# [2] = molecular target: HIV-1 APV13 Env (on pseudovirus) (HIV-1)
# [3] = molecular target: HIV-1 envelope glycoprotein (Env) of isolate MGRM-C-020, on pseudovirus (HIV-1)
# [4] = molecular target: HIV-1 MGRM-D-018 Env (on pseudovirus) (HIV-1)
# [5] = molecular target: HIV-1 Env of isolate MGRM-G-024 (subtype G) (HIV-1)
# [6] = molecular target: HIV-1 92UG024 Env (on pseudovirus) (HIV-1)
# [7] = molecular target: HIV-1 Env of isolate MGRM-G-017 (subtype G) (HIV-1)
# [8] = molecular target: HIV-1 envelope glycoprotein (Env) of isolate MGRM-C-015, on pseudovirus (HIV-1)
# [9] = molecular target: HIV-1 94UG103 Env (on pseudovirus) (HIV-1)
# [10] = molecular target: HIV-1 APV17 Env (on pseudovirus) (HIV-1)
# [11] = molecular target: HIV-1 MGRM-C-026 envelope glycoprotein (Env) (HIV-1)
# [12] = molecular target: HIV-1 Env of isolate MGRM-A-003 (HIV-1)
# [13] = molecular target: HIV-1 Env of isolate 92WR009 (HIV-1)
# [14] = molecular target: HIV-1 Env of isolate MGRM-A-007 (HIV-1)
# [15] = molecular target: HIV-1 Env of isolate MGRM-A-010 (HIV-1)
# [16] = molecular target: HIV-1 JRCSF envelope glycoprotein (Env) (HIV-1) (UniProt P20871)
# [17] = molecular target: HIV-1 MGRM-A-010 envelope glycoprotein (Env) (HIV-1)
# [18] = molecular target: HIV-1 Env of isolate MGRM-A-004 (HIV-1)
# [19] = molecular target: HIV-1 93IN905 envelope glycoprotein (Env) (HIV-1)
# [20] = molecular target: HIV-1 Env of pseudovirus JRCSF, clade B (HIV-1) (UniProt P20871)
# [21] = molecular target: HIV-1 94UG103 envelope protein (Env) on pseudotyped virus (HIV-1 isolate 94UG103)
# [22] = molecular target: HIV-1 Env of isolate MGRM-D-011 (HIV-1)
# [23] = molecular target: HIV-1 IAVI-C18 envelope protein (Env) on pseudovirus (HIV-1)
# [24] = molecular target: HIV-1 Env of isolate 98CN009 (HIV-1)
# [25] = molecular target: HIV-1 MGRM-F1-012 Env (pseudovirus) (HIV-1)
# [26] = molecular target: HIV-1 MGRM-C-010 Env (HIV-1)
# [27] = molecular target: HIV-1 NL43 envelope protein (Env) on pseudotyped virus (HIV-1 NL43)
# [28] = molecular target: HIV-1 Env of isolate MGRM-F1-004 (HIV-1)
# [29] = molecular target: HIV-1 Env of isolate MGRM-D-008 (clade D) (HIV-1)
# [30] = molecular target: HIV-1 IAVI-C3 envelope protein (Env) on pseudovirus (HIV-1)
# [31] = molecular target: HIV-1 Env of isolate MGRM-F1-015 (HIV-1)
# Sequence of PGT-143 (4980_N08) (antibody) (VH): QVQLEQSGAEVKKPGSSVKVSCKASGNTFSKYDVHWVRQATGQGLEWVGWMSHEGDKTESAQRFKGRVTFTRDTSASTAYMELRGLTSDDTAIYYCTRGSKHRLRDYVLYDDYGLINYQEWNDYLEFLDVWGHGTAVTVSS
# Sequence of PGT-143 (4980_N08) (antibody) (VL): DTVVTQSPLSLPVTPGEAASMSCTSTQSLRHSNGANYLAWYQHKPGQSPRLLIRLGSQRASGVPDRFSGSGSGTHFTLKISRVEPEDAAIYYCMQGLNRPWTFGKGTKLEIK
# Sequence of PGT-142 (4995_E20) (antibody) (VH): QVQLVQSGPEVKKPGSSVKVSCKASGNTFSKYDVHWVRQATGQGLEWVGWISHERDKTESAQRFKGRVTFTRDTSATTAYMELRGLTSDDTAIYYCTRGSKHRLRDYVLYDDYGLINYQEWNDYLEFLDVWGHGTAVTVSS
# Sequence of PGT-142 (4995_E20) (antibody) (VL): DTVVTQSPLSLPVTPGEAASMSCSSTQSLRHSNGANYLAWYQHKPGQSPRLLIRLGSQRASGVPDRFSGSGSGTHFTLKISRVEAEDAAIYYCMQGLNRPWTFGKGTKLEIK
# Sequence of PGT-144 (4970_K22) (antibody) (VH): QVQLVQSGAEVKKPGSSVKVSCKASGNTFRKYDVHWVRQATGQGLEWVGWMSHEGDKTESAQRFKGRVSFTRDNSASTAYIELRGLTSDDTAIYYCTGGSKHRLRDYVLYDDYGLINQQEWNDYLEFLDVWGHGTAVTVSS
# Sequence of PGT-144 (4970_K22) (antibody) (VL): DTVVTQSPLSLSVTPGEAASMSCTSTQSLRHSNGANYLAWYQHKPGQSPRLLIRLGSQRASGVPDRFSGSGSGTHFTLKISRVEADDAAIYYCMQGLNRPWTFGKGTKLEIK
# Sequence of PGT-141 (4964_G22; 4993_K13) (antibody) (VH): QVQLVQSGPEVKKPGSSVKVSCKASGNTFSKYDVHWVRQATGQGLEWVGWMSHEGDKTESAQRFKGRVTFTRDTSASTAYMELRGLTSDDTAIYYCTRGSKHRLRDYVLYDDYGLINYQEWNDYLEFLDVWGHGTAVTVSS
Substance,"IC50 (ug/ml), pseudovirus neutralization [1]","IC50 (ug/ml), pseudovirus neutralization [2]","IC50, pseudovirus neutralization [3]","IC50 (ug/ml), pseudovirus neutralization [4]",neutralization IC50 [5],"IC50 (ug/ml), pseudovirus neutralization [6]",neutralization IC50 [7],"IC50, pseudovirus neutralization [8]","IC50 (ug/ml), pseudovirus neutralization [9]","IC50 (ug/ml), pseudovirus neutralization [10]",IC50 neutralization [11],"IC50 (µg/mL), pseudovirus neutralization [15]",IC50 neutralization [16],IC50 neutralization [17],IC50 neutralization [19],other results
PGT-141 (4964_G22; 4993_K13) (antibody),> 10 µg/mL,> 10 µg/mL,1.34 µg/mL,> 10 µg/mL,0.051 µg/mL,> 10 µg/mL,0.164 µg/mL,0.033 µg/mL,> 10 µg/mL,0.616 µg/mL,,,,,,
PGT-121 (antibody),,,,,,,,,,,3.4 ng/mL,2.44 µg/mL,0.0343 µg/mL,2.61 µg/mL,0.0082 µg/mL,"IC50 (µg/mL), pseudovirus neutralization [12]: 0.435 µg/mL; IC50 (µg/mL), pseudovirus neutralization [13]: 1.74 µg/mL; IC50 (µg/mL), pseudovirus neutralization [14]: > 50 µg/mL; IC50 (µg/mL), pseudovirus neutralization [18]: > 50 µg/mL"
1496_C09 (PG9) (TCN-109) (antibody),,,,,0.163 µg/mL,,0.104 µg/mL,,,,113 ng/mL,0.022 µg/mL,0.0048 µg/mL,0.0375 µg/mL,0.048 µg/mL,"IC50 (µg/ml), pseudovirus neutralization [20]: 0.003 µg/mL; IC50, pseudovirus neutralization, 1 hour Virus/Ab Incubation [21]: 0.334 µg/mL; IC50, pseudovirus neutralization, 18 hour Virus/Ab Incubation [21]: 0.0942 µg/mL; IC50 (µg/mL), pseudovirus neutralization [22]: 0.071 µg/mL; IC50 [12]: 1.94 µg/mL; neutralization IC50 [23]: 0.0535 µg/mL; IC50 [14]: 1.06 µg/mL; IC50, pseudovirus neutralization [24]: 0.371 µg/mL; IC50 (µg/ml), pseudovirus neutralization [25]: 0.01 µg/mL; IC50 [26]: 12.4 µg/mL; IC50, pseudovirus neutralization, 1 hour Virus/Ab Incubation [27]: 0.294 µg/mL; IC50, pseudovirus neutralization, 18 hour Virus/Ab Incubation [27]: 38 µg/mL; IC50 (µg/mL), pseudovirus neutralization [28]: 0.175 µg/mL; IC50 (µg/ml), pseudovirus neutralization [29]: 6.86 µg/mL; neutralization IC50 [30]: 12.9 µg/mL"
PGT-143 (4980_N08) (antibody),> 10 µg/mL,> 10 µg/mL,0.797 µg/mL,> 10 µg/mL,0.048 µg/mL,> 10 µg/mL,0.107 µg/mL,0.085 µg/mL,> 10 µg/mL,0.618 µg/mL,,,,,,
PGT-122 (antibody),,,,,,,,,,,8.9 ng/mL,2.51 µg/mL,0.0727 µg/mL,1.68 µg/mL,0.0138 µg/mL,"IC50 (µg/mL), pseudovirus neutralization [12]: 3.79 µg/mL; IC50 (µg/mL), pseudovirus neutralization [13]: 42.4 µg/mL; IC50 (µg/mL), pseudovirus neutralization [14]: > 50 µg/mL; IC50 (µg/mL), pseudovirus neutralization [18]: > 50 µg/mL"
PGT-142 (4995_E20) (antibody),> 10 µg/mL,> 10 µg/mL,0.446 µg/mL,> 10 µg/mL,0.054 µg/mL,> 10 µg/mL,0.125 µg/mL,0.038 µg/mL,> 10 µg/mL,0.393 µg/mL,,,,,,
PGV04 (antibody),,,,,0.033 µg/mL,,0.065 µg/mL,,,,,0.205 µg/mL,,,,"IC50 (µg/mL), pseudovirus neutralization [22]: 0.025 µg/mL; IC50 [12]: 0.128 µg/mL; IC50 [14]: 7.21 µg/mL; IC50, pseudovirus neutralization [24]: 0.0125 µg/mL; IC50 (µg/mL), pseudovirus neutralization [31]: 0.179 µg/mL; IC50 [18]: 0.175 µg/mL; IC50 (µg/mL), pseudovirus neutralization [28]: 0.58 µg/mL"
PGT-144 (4970_K22) (antibody),> 10 µg/mL,> 10 µg/mL,1.29 µg/mL,> 10 µg/mL,7.92 µg/mL,> 10 µg/mL,9.97 µg/mL,0.236 µg/mL,> 10 µg/mL,5.12 µg/mL,,,,,,
